Substitutions are numbered along the chain they refer to.
Key:
[1] = target: T1, tau phospho-peptide of the direct ELISA of Example 11; assay: direct ELISA, peptide coated
T1 construct: also called pT217 peptide; pT212/pT217 peptide
Method: (§1) Binding to tau phospho-peptide was analysed by ELISA where peptide (10 ng/mL) was directly coated to the plate overnight. […] After incubation with antibodies, plates were washed and 50 μL per well of HRPO labelled anti-Fab antibody (Jackson Immunoresearch laboratories) (diluted 1:10000 in blocking buffer). After another washing step detection was performed with “One step” TMB (Thermo Scientific) according to the manufacturers' instructions. Plates were analysed in EnVision® 2102 Multilabel Reader (Perkin Elmer, Waltham, Mass., USA). Binding curves were generated using GraphPad Prism7.0 software.

[2] = target: T1, tau phospho-peptide of the direct ELISA …; assay: direct ELISA on plate-coated tau phospho-peptide (10 ng/mL), detection with HRPO-labelled anti-Fab antibody
Method: as §1

[3] = target: T2, PHF-tau (paired helical filament tau isolated from Alzheimer's disease brain) (human, UniProt P10636-8 2-441, limits assumed, hyper-phosphorylated, aggregated; sites not listed for the preparation); assay: SPR ProteOn, PHF-tau capture-coupled via HT7, bivalent model; lower end of range; lower end of range
T2 construct: also called enriched PHF-tau; ePHF-tau
Method: (§2) Affinity matured monoclonal antibodies were tested for binding to PHF-tau isolated from Alzheimer's disease brain.
(§3) A GLC sensor chip was covalently immobilized with a mouse anti-tau antibody, HT7 (ThermoFisher, catalog# MN1000) using the vendor recommended protocol for amine-coupling chemistry (˜5000 response units, RU). The coupling buffer was 10 mM, pH 4.5 sodium acetate. PHF-tau was prepared by 2-times centrifugation at 5000×g in 5° C. for 10 min. […] After capture-coupling, the surface was activated and deactivated to generate a homogenous PHF-tau surface for antibody binding studies. The anti-tau antibodies and their Fabs (prepared in running buffer, 0.024-75 nM at 5-fold dilutions) were injected at 50 μL/min over the PHF-tau surface to measure binding. The association and dissociation profiles were monitored for 4 minutes and 2 hours, respectively. After dissociation, the sensor chip was regenerated using multiple injections of 10 mM Glycine pH 2.0 and the running buffer. A reference surface (without any PHF-tau) was used to monitor non-specific binding of the injected mAbs or Fabs. HT7 antibody was used as a positive control. The binding sensorgrams for mAbs were fit using a bivalent binding model where the apparent affinity or avidity-driven binding (KD) was reported as the ratio of off-rate and on-rate (koff/kₒₙ). […]

[4] = target: T2, PHF-tau (paired helical filament tau …); assay: SPR ProteOn, PHF-tau capture-coupled via HT7, bivalent model; lower end of range
Method: as §2, §3

[5] = target: T2, PHF-tau (paired helical filament tau …); assay: SPR ProteOn, PHF-tau capture-coupled via HT7, bivalent model; upper end of range; upper end of range
Method: as §2, §3

[6] = target: T2, PHF-tau (paired helical filament tau …); assay: SPR ProteOn, PHF-tau on chip
[7] = target: T2, PHF-tau (paired helical filament tau …); assay: SPR ProteOn, PHF-tau capture-coupled via HT7, bivalent model
Method: as §2
(§4) A GLC sensor chip was covalently immobilized with a mouse anti-tau antibody, HT7 (ThermoFisher, catalog# MN1000) using the vendor recommended protocol for amine-coupling chemistry (˜5000 response units, RU). The coupling buffer was 10 mM, pH 4.5 sodium acetate. PHF-tau was prepared by 2-times centrifugation at 5000×g in 5° C. for 10 min. […] After capture-coupling, the surface was activated and deactivated to generate a homogenous PHF-tau surface for antibody binding studies. The anti-tau antibodies and their Fabs (prepared in running buffer, 0.024-75 nM at 5-fold dilutions) were injected at 50 μL/min over the PHF-tau surface to measure binding. The association and dissociation profiles were monitored for 4 minutes and 2 hours, respectively. After dissociation, the sensor chip was regenerated using multiple injections of 10 mM Glycine pH 2.0 and the running buffer. A reference surface (without any PHF-tau) was used to monitor non-specific binding of the injected mAbs or Fabs. HT7 antibody was used as a positive control. The binding sensorgrams for mAbs were fit using a bivalent binding model where the apparent affinity or avidity-driven binding (KD) was reported as the ratio of off-rate and on-rate (koff/kₒₙ). A 1:1 Langmuir binding model was used for kinetics analysis of Fabs.

[8] = target: T2, PHF-tau (paired helical filament tau …); assay: SPR ProteOn, PHF-tau capture-coupled via HT7, bivalent model; upper end of range
Method: as §2, §3

Peptide-2 [9] = target: T3, Peptide-2 (human, phosphothreonine 212, phosphothreonine 217 (tau 2N4R numbering); short chain biotin (SCBiot) and dPEG4 at the N-terminus; amide at the C-terminus); assay: SPR ProteOn, peptide captured, Fab as analyte; range of n=2; lower end of n=2 range
T3 construct: also called pT212/pT217-tau peptide (Peptide-2)
Method: (§5) A subset of HFA-PT3 monoclonal antibody variants, selected based on biophysical characterization and ELISA binding to PHF, were analyzed by Surface Plasmon Resonance (SPR) with a ProteOn XPR36 for binding to the following phosphopeptides: pT212/pT217-tau peptide (Peptide-2, SEQ ID NO: 48) and pT212-tau peptide (Peptide-8, SEQ ID NO: 54). All experiments were performed at 25° C. using PBST, pH 7.4, (Bio-Rad Cat#176-2720) as both running buffer and sample dilution buffer.
(§6) Fab/peptide binding. Biotinylated peptide was captured on a neutravidin-coated NLC biosensor chip pre-conditioned with PBST, and Fab was flowed over the surface to measure kinetic parameters. Approximately 5-10 RU of peptide was captured on the chip surface by diluting peptide to 10 ng/mL in PBST and injecting over the flow channels at 30 μL/min for 100 s. Serial dilutions of PT3 Fab (1.1 nM to 90 nM) were injected at 60 μL/min for 3 minutes (association phase), followed by 300 s of buffer only (dissociation phase).
(§7) Data were double referenced by subtraction of the interspot response, and the curves generated by the buffer only injection. The chip surface was regenerated with 0.85% phosphoric acid, followed by PBST injection before the next antibody titration injection. Data processing and analysis were performed using instrument software. The data were fit using a simple Langmuir 1:1 binding model.

[10] = target: T2, PHF-tau (paired helical filament tau …); assay: SPR ProteOn, PHF-tau capture-coupled via HT7, 1:1 model
Method: (§8) A subset of HFA-PT3 monoclonal antibodies was tested for binding to PHF-tau isolated from Alzheimer's disease brain. All interactions were studied at 25° C. using PBS pH 7.4, supplemented with 3 mM EDTA, and 0.005% Tween 20 as running or system buffer. HT7 (Pierce, catalog #MN1000), a mouse anti-tau antibody, was used as a positive control.
(§9) The interaction of anti-tau monoclonal antibodies with PHF-tau was analyzed by ProteOn using a biosensor surface prepared by capture-coupling PHF-tau using HT7 as the capture reagent. PHF-tau was prepared by 2-times centrifugation at 5000×g at 5° C. for 10 min; the supernatant from the second centrifugation was then diluted 1/40 in running buffer. To prepare the chip, HT7 was covalently immobilized to the surface of a GLC (ProteOn) sensor chip using the manufacturer's instructions for amine-coupling chemistry (˜5000 response units (RU)). The coupling buffer was 10 mM sodium acetate, pH 4.5. After HT7 immobilization, PHF-tau was injected and captured (˜300 RU) by HT7. After capture, PHF-tau was covalently immobilized to the sensor chip by activation of the chip using the manufacturer's instructions for amine-coupling chemistry. Remaining reactive sites were blocked by the injection of ethanolamine. After preparation and stabilization of the PHF-tau-modified surface and reference surface (containing no antigen), the anti-tau antibodies were diluted in the running buffer and injected in solution (0.12-75 nM in 5-fold dilutions). The association was monitored for 3 minutes (120 μL injected at 40 μL/min). The dissociation was monitored for 15 minutes. Regeneration of the sensor surface was performed using 10 mM Gly pH 2.0. The data for monoclonal antibodies were fit using a bivalent binding model where the apparent affinity (KD) was reported as the ratio of koff/kₒₙ. A Langmuir 1:1 binding model was used for kinetics analysis of Fabs.

[11] = target: T1, tau phospho-peptide of the direct ELISA …; assay: direct ELISA on plate-coated tau phospho-peptide, Fabs
Method: as §1

Peptide-2 [12] = target: T3, Peptide-2; assay: SPR ProteOn, peptide captured, Fab as analyte; range of n=2; upper end of n=2 range
Method: as §5, §6, §7

Peptide-2 [13] = target: T3, Peptide-2; assay: SPR ProteOn, peptide captured, Fab as analyte; range of n=2
Method: as §5, §6, §7

Peptide-2 [14] = target: T3, Peptide-2; assay: SPR ProteOn, peptide captured, Fab as analyte
Method: as §5, §6, §7

[15] = target: T2, PHF-tau (paired helical filament tau …); assay: SPR ProteOn, PHF-tau capture-coupled via HT7, 1:1 model; remark: listed apart in the source
Method: as §2, §4

Peptide-2 [16] = target: T3, Peptide-2; assay: SPR ProteOn, mAb captured, peptide as analyte; range of n=2
Method: as §5
(§10) Monoclonal antibody/Peptide binding. […] Anti-human IgG was amine-coupled to the chip surface using EDC/NHS, then washed with ethanolamine. Antibodies were diluted to 2 μg/mL in PBST and injected on the surface for 5 min at 30 μL/min to achieve a maximum density of 900-1000 RU. Peptides were injected as analytes at 60 μL/min for 3 min, followed by 5 min dissociation. Peptide-2 was diluted in PBST to generate a three-fold concentration series (0-30 nM) and measured in duplicate. Single measurements of monoclonal antibody binding to Peptide-8 were recorded over the concentration range 0-100 nM.
as §7

Peptide-2 [17] = target: T3, Peptide-2; assay: SPR ProteOn, mAb captured, peptide as analyte; range of n=2; upper end of n=2 range
Method: as §5, §10, §7

Peptide-2 [18] = target: T3, Peptide-2; assay: SPR ProteOn, mAb captured, peptide as analyte; range of n=2; lower end of n=2 range
Method: as §5, §10
as §7, with “The data were fit using a simple Langmuir 1:1 binding model.” left out

[19] = target: T2, PHF-tau (paired helical filament tau …); assay: SPR ProteOn, PHF-tau capture-coupled via HT7, bivalent model; remark: listed apart in the source
Method: as §8, §9

Peptide-2 [20] = target: T3, Peptide-2; assay: SPR ProteOn, mAb captured, peptide as analyte
Method: as §5, §10, §7

T2 sequence (P10636 other isoform, or with tags, fused parts or gaps limits assumed): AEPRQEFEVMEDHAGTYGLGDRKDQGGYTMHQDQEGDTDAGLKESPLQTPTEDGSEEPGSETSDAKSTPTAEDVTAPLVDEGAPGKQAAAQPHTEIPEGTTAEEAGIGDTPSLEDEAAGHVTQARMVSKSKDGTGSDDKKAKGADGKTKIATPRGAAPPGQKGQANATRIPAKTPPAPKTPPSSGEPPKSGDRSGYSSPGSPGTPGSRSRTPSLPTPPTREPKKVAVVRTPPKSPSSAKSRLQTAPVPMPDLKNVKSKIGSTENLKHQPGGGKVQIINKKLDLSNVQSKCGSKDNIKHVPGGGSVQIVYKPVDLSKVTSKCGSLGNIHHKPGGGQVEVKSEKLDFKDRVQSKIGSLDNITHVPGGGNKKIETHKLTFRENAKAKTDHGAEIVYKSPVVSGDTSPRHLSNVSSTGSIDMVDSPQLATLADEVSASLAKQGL
T3 sequence (peptide, as listed by the source): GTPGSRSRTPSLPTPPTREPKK

B1: B711 (antibody, human IgG1, kappa, V domains shown)
VH: QVQLVESGGGVVQPGRSLRLSCAASGFTFTSYAMSWVRQAPGKGLEWVASITKGGNTYYADSVKGRFTISRDNSKNTLYLQMNSLRAEDTAVYYCARGWGIYGWFAYWGQVTLVTVSS
VL: DIQMTQSPSSLSASVGDRVTITCKASQDINRWLNWFQQKPGKAPKSLIYRANRLLDGVPSRFSGSGSGTDFTLTISSLQPEDFATYYCLQYDEFPLTFGQGTKLEIKR
notes: also called PT1B711
- EC50 [1]: 0.0707 nM
- EC50 (read off the curve) [2]: ~0.04 nM
- kon [3]: 5.72e+06 M⁻¹ s⁻¹
- Kd [4]: 0.0016 nM
- koff [4]: 1.08e-05 s⁻¹
- kon [5]: 6.61e+06 M⁻¹ s⁻¹
- fold improvement in on-rate compared to the parent antibody (B296) [6]: 3 fold
- Kd [7]: 0.0018 nM
- koff [7]: 1.13e-05 s⁻¹
- kon [7]: 6.17e+06 M⁻¹ s⁻¹
- Kd [8]: 0.0021 nM
- koff [8]: 1.17e-05 s⁻¹

B2: B324 (Fab of B296) (Fab, V domains shown)
VH: B1 VH with T30S, T52S, I101D
VL: DIQMTQSPSSLSASVGDRVTITCKASQDINRYLNWFQQKPGKAPKSLIYRANRLLDGVPSRFSGSGSGTDFTLTISSLQPEDFATYYCLQYDEFPLTFGQGTKLEIK
notes: also called M324; B296 Fab
- EC50 [1]: 0.341 nM
- koff (Peptide-2 [9]): 0.000161 s⁻¹
- Kd [10]: 0.167 nM
- koff [10]: 0.000136 s⁻¹
- kon [10]: 816000 M⁻¹ s⁻¹
- EC50 (read off the curve) [11]: ~0.5 nM
- koff (Peptide-2 [12]): 0.000186 s⁻¹
- kon (Peptide-2 [12]): 793000 M⁻¹ s⁻¹
- fold slower off-rate than B326 [6]: 1.7 fold
- fold stronger affinity (KD) than B326 [6]: 1.3 fold
- fold weaker KD than the mouse PT3 parent Fab B187 [6]: 2.5 fold
- Kd (Peptide-2 [13]): 0.234 to 0.376 nM
- kon (Peptide-2 [13]): 427000 M⁻¹ s⁻¹
- Kd (Peptide-2 [14]): 0.305 nM
- koff (Peptide-2 [14]): 0.000174 s⁻¹
- kon (Peptide-2 [14]): 610000 M⁻¹ s⁻¹
- Kd [15]: 0.0632 nM
- koff [15]: 9.03e-05 s⁻¹
- kon [15]: 1.43e+06 M⁻¹ s⁻¹

B3: B235 (antibody, human IgG1, V domains shown)
VH: B1 VH with Q1E, V5L, V11L, R16G, T30S, A49S, T52S, R97K, I101D
VL: B2 VL
notes: Humanized (HFA) PT3 variant, human IgG1/kappa; also called VH91/VL77
- Kd (Peptide-2 [16]): 1.71 to 1.86 nM
- kon (Peptide-2 [16]): 2.84e+06 M⁻¹ s⁻¹
- koff (Peptide-2 [17]): 0.0061 s⁻¹
- kon (Peptide-2 [17]): 3.58e+06 M⁻¹ s⁻¹
- koff (Peptide-2 [18]): 0.00528 s⁻¹
- Kd [19]: 0.165 nM
- koff [19]: 8.06e-05 s⁻¹
- kon [19]: 490000 M⁻¹ s⁻¹
- Kd (Peptide-2 [20]): 1.79 nM
- koff (Peptide-2 [20]): 0.00569 s⁻¹
- kon (Peptide-2 [20]): 3.21e+06 M⁻¹ s⁻¹

Reference: patent US20230047413A1 (Janssen / Centocor, published 2023)
